{"source": "patent US20210221882A1", "about": "(Sanofi, published 2021)", "binders": {"B1": {"name": "huTBTI3_2_1 (bispecific antibody)", "VH": "EVQLKESGPGLVAPGGSLSITCTVSGFSLTDSSINWVRQPPGKGLEWLGMIWGDGRIDYADALKSRLSISKDSSKSQVFLEMTSLRTDDTATYYCARDGYFPYAMDFWGQGTSVTVSSGGGGSGGGGSQVQLQQSGPELVKPGASVKISCKASGYSFTSYWIHWIKQRPGQGLEWIGMIDPSDGETRLNQRFQGRATLTVDESTSTAYMQLRSPTSEDSAVYYCTRLKEYGNYDSFYFDVWGAGTLVTVSS", "VL": "DIVLTQSPASLAVSLGQRATISCRASESVDSYGQSYMHWYQQKAGQPPKLLIYLASNLESGVPARFSGSGSRTDFTLTIDPVQAEDAATYYCQQNAEDSRTFGGGTKLEIKGGGGSGGGGSDIQMTQSPASLSVSVGDTITLTCHASQNIDVWLSWFQQKPGNIPKLLIYKASNLHTGVPSRFSGSGSGTGFTLTISSLQPEDIATYYCQQAHSYPFTFGGGTKLEIK"}}, "assay_in_all_cases": "cell-based or functional assay", "key": {"Recombinant human IL-4 [1]": {"molecular_target": "T1, Recombinant human IL-4 (human, UniProt P05112 25-153)", "T1 sequence (looked up)": "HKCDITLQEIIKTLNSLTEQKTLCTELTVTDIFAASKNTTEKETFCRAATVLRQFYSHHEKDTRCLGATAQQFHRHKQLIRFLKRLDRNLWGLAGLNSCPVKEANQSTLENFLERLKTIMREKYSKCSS"}, "Recombinant human IL-4 [2]": {"molecular_target": "T1, Recombinant human IL-4", "remark": "listed apart in the source"}, "Recombinant human IL-4 [3]": {"molecular_target": "T1, Recombinant human IL-4", "remark": "listed apart in the source"}, "cynomolgus monkey IL-4": {"molecular_target": "T2, cynomolgus monkey IL-4 (cynomolgus monkey, UniProt P79339 25-153, limits assumed)", "T2 sequence (looked up)": "T1 sequence (looked up) with E26K, V29I, F33L"}}, "note": "Residue numbers refer to the chain shown, from its start.", "data": [{"binder": "B1", "values": [{"measurement": "IC50, IL-4/IL-13-stimulated IL-6 release from LL97A IPF lung fibroblasts (combination of 15 ng/ml rhIL-13 plus 5 ng/ml rhIL-4)", "setting": "Recombinant human IL-4 [1]", "value": 7.8, "unit": "nM"}, {"measurement": "IC50, IL-4/IL-13-stimulated eotaxin release from LL97A IPF lung fibroblasts (combination of 15 ng/ml rhIL-13 plus 5 ng/ml rhIL-4)", "setting": "Recombinant human IL-4 [1]", "value": 3.8, "unit": "nM"}, {"measurement": "IC50, IL-4 and IL-13 induced LOX gene expression in IPF pulmonary fibroblasts (Taqman)", "setting": "Recombinant human IL-4 [1]", "value": "3 to 6", "unit": "nM"}, {"measurement": "IC50, inhibition of IL-4-induced Stat6 phosphorylation in human blood monocytes, donor 217", "setting": "Recombinant human IL-4 [2]", "value": 0.78, "unit": "nM"}, {"measurement": "IC50, inhibition of IL-4-induced Stat6 phosphorylation in human blood monocytes, donor 229", "setting": "Recombinant human IL-4 [2]", "value": 0.73, "unit": "nM"}, {"measurement": "IC50, inhibition of IL-4-induced Stat6 phosphorylation in human blood monocytes, donor 245", "setting": "Recombinant human IL-4 [2]", "value": 1.32, "unit": "nM"}, {"measurement": "Mean IC50, inhibition of TF-1 cell proliferation induced by human IL-4", "setting": "Recombinant human IL-4 [3]", "value": 2.03, "unit": "nM"}, {"measurement": "Mean IC50, inhibition of TF-1 cell proliferation induced by cynomolgus IL-4", "setting": "cynomolgus monkey IL-4", "value": 0.53, "unit": "nM"}]}]}
